One experiment deals with T1, Cyno Cadherin-19 (cynomolgus monkey (Macaca fascicularis), UniProt Q9H159 44-772 (human entry)).
T1 construct: also called cyno CDH19; cynomologous CDH-19
T1 chain: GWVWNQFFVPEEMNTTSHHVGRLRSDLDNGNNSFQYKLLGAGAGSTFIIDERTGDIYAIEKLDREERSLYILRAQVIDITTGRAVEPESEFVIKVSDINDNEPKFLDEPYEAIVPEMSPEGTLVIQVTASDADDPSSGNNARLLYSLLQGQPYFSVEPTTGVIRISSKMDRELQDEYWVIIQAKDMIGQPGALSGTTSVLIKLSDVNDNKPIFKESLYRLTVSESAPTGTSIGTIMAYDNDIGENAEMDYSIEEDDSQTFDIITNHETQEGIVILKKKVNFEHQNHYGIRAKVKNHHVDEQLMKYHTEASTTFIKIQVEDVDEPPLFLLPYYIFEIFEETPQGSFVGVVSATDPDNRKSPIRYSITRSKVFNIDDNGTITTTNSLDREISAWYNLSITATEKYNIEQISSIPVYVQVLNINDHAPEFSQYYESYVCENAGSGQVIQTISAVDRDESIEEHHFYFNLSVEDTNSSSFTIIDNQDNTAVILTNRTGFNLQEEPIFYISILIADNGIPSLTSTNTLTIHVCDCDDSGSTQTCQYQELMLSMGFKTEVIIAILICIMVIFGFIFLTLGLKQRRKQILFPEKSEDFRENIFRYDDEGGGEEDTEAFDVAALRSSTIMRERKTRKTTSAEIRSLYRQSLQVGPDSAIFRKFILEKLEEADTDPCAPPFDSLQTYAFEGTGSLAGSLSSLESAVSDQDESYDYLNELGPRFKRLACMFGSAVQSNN
The experiment can be described thus: FACS, recombinant cyno CDH19.

The next experiment concerns the target T2, Human Cadherin-19 (human, UniProt Q9H159 44-772).
T2 construct: Residues 1-43 are named as the native leader in the construct designations and are left out; also called human CDH19; huCDH19
In words: FACS, endogenous and recombinant human CDH19. For orientation: A flow cytometer gives signals particle by particle.

Experiment [1] addresses T3, muCDH19(44-247)::huCDH19(250-364)::muCDH19(363-770), Flag-tagged, on 293T cells (human/mouse chimera).
T3 construct: also called Hu EC3; C137911
In words: FACS, transfected 293T.
From the text: (§1) The experiment included assaying the anti-CDH19 antibodies against mouse Cadherin19 to determine suitability for binning on these human/mouse chimeras.

Experiment [2] deals with T4, huCDH19(44-772), Flag-tagged, on 293T cells (human, UniProt Q9H159 44-772).
T4 construct: Expressed with native leader (1-43) followed by a Flag tag; leader left out; also called Hu EC1-5
The experiment can be described thus: FACS, transfected 293T.
From the text: as §1

Experiment [3] deals with T5, muCDH19(44-139)::huCDH19(142-364)::muCDH19(363-770), Flag-tagged, on 293T cells (human/mouse chimera).
T5 construct: also called Hu EC2-3; C137847
In words: FACS, transfected 293T.
From the text: as §1

Experiment [4] concerns the target T6, muCDH19(44-770), Flag-tagged, on 293T cells (mouse).
T6 construct: also called Mu EC1-5
T6 chain: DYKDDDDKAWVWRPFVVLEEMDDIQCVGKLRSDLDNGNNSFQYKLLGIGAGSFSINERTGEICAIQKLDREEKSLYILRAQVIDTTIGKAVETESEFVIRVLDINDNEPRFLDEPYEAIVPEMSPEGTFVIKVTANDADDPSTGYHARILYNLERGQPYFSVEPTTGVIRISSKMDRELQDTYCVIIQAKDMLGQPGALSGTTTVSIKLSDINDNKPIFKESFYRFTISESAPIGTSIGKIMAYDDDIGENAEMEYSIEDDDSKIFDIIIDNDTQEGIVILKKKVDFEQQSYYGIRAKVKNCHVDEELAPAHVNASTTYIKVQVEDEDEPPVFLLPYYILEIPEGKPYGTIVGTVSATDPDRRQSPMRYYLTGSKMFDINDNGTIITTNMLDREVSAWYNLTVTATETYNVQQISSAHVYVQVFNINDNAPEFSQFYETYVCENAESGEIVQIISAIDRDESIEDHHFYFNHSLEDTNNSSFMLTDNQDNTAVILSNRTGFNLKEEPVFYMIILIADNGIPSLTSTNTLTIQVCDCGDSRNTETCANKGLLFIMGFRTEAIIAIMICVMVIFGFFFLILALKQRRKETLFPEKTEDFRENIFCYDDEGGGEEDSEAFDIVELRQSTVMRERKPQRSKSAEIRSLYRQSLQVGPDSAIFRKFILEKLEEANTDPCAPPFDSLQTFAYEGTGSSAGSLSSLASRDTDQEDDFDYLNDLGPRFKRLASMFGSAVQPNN
In words: FACS, transfected 293T.

In experiment [5] the target is T7, huCDH19(1-43)::FLAG::hu(44-141)::ckCDH19(142-776), on 293T cells (human/chicken chimera).
T7 construct: Entry holds leader (1-43), Flag tag and CDH19 part; leader left out; also called Hu EC1 (chicken backbone)
In words: FACS, transfected 293T.
Method: (§2) The following binding assay was completed in presence of 2 mM CaCl2. […] Cells were then washed one time and the amount of cell associated Alexa647-labelled Ab was quantitated by flow cytometry. The experiments included mock transfected controls.

Experiment [6] addresses T8, ckCDH19(1-43)::FLAG::ckCDH19(44-141)::huCDH19(142-249)::ckCDH19(250-776), on 293T cells (human/chicken chimera).
T8 construct: Entry holds leader (1-43), Flag tag and CDH19 part; leader left out; also called Hu EC2 (chicken backbone)
T8 chain: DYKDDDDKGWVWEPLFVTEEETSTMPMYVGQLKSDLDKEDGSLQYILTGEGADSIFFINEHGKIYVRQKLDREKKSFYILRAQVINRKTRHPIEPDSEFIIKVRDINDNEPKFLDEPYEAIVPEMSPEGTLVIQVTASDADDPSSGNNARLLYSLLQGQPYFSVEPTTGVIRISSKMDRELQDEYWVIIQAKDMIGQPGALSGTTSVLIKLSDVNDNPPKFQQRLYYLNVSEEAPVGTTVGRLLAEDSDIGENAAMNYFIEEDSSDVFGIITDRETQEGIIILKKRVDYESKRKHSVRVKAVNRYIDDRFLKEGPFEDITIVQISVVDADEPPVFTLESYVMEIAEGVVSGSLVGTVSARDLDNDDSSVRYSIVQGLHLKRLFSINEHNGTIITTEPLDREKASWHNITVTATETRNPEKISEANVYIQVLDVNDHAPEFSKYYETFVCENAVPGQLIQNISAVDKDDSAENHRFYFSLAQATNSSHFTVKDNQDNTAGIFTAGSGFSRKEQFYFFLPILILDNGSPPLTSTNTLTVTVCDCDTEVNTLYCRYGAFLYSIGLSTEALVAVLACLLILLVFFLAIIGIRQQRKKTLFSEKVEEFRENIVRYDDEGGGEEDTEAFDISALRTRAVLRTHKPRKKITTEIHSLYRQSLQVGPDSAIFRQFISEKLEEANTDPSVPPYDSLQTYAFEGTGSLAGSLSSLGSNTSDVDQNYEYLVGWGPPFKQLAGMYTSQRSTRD
The experiment can be described thus: FACS, transfected 293T.
Method: as §2

For experiment [7], the target named is T9, ckCDH19(1-43)::FLAG::ckCDH19(44-776), on 293T cells (chicken).
T9 construct: Entry holds leader (1-43), Flag tag and CDH19 part; leader left out; also called Ck EC1-5
T9 chain: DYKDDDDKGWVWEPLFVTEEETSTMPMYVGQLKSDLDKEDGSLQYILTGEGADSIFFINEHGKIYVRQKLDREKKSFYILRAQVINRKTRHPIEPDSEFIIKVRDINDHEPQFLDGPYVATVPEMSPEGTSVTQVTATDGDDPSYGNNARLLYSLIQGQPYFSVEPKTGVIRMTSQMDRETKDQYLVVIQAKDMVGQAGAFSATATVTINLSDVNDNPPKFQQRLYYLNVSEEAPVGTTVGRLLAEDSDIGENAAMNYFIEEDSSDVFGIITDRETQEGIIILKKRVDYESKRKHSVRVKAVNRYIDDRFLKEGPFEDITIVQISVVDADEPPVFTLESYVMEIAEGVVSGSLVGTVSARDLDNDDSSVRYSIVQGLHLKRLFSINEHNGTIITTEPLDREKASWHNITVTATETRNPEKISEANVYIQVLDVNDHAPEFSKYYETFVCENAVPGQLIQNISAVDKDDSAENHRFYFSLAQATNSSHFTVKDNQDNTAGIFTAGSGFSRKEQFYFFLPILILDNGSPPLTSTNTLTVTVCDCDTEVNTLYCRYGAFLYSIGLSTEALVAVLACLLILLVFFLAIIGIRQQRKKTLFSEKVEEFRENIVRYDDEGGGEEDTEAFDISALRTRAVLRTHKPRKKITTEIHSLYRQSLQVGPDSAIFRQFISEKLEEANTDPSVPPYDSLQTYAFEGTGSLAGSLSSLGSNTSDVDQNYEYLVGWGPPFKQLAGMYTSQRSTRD
In words: FACS, transfected 293T.
Method: as §2

For experiment [8], the target named is T10, (1-43)::FLAG::ckCDH19(44-468)::huCDH19(464-772), on 293T cells (human/chicken chimera).
T10 construct: Entry holds leader (1-43), Flag tag and CDH19 part; leader left out; also called Hu EC5 (chicken backbone)
T10 chain: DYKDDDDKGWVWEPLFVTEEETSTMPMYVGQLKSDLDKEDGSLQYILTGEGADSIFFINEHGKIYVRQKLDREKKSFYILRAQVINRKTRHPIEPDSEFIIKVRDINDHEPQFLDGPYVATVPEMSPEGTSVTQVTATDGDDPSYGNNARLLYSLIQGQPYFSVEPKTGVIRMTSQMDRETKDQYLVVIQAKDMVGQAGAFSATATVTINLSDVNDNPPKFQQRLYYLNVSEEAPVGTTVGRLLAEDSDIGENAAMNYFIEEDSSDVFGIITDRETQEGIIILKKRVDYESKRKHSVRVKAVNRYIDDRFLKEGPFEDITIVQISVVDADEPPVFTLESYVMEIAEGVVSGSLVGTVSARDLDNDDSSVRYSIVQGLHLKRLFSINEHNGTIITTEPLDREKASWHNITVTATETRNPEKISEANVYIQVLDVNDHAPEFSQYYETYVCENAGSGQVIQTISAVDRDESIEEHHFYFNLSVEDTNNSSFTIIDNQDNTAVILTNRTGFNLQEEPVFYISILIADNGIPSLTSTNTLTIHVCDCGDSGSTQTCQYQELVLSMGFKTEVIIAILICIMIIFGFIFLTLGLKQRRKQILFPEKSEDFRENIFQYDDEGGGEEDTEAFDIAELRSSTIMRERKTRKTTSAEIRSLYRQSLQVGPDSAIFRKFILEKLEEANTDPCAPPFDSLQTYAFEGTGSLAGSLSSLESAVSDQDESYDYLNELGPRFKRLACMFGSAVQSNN
The experiment can be described thus: FACS, transfected 293T.
Method: as §2

This note sets out measurements from US20140322218A1 (Amgen, published 2014).

Method for Human Cadherin-19: FACS binding assays were performed to evaluate the binding of the anti-Cadherin-19 receptor specific antibodies to endogenous Cadherin-19 receptor expressed on the CHL-1 tumor cell lines.
FACs assays were performed by incubating hybridoma supernatants with 10,000 to 25,000 cells in PBS/2% Fetal bovine serum/2 mM Calcium Chloride at 4° C. for one hour followed by two washes with PBS/2% Fetal bovine serum/2 mM Calcium Chloride. Cells were then treated with florochrome-labeled secondary antibodies at 4° C. followed by one wash. The cells were resuspended in 50 μl of PBS/2% FBS and antibody binding was analyzed using a FACSCalibur™ instrument.

B1: anti-CDH19 antibody 23A10 (Ab ID 13884) (antibody, human IgG1, lambda, V domains shown)
VH: QVQLVESGGGVVQPGRSLRLSCAASGFTFSRYGIHWVRQAPGKGLEWVAVIWYDGSNKYYADSVKGRFTISRDNSKNTLYLLMNSLRAEDSAVYYCARRAGIPGTTGYYYGMDVWGQGTTVTVSS
VL: SYELTQPPSVSVSPGQTASITCSGDRLGEKYVCWYQQKPGQSPILVIYQDNKWPSGIPERFSGSNSGNTATLTISGTQAMDEADYYCQAWDSSTVVFGGGTKLTVLG
Turning to B1, the binding result with Cyno Cadherin-19 and in the experiment with Human Cadherin-19 was “binds” each time.

B2: hu anti-<huCDH19> 4A2 (1-472)(Q17E,H47P) VH::huIgG1z / 4A2 (1-236)(N30Q,T102A) VL::huKLC (Ab ID 14026) (antibody, V domains shown)
VH: QVQLQESGPGLVKPSETLSLTCTVSGGSISSSGYYWSWIRQPPGKGLEWIGYIYYTGSAYYNPSLKSRVTISVDTSKNQFSLKLSSVTAADTAVYYCARDGSSGWYFQYWGQGTLVTVSS
VL: EIVLTQSPGTLSLSPGERATLSCRASRQISSSYLAWYQQKPGQAPRLLIYGPSSRATGIPDRFSGSGSGTDFTLTISRLEPEDFAVYYCQQYGSSFTFGPGTKVDIKR
notes: Engineered variant of 4A2
As to B2, the binding result in [1], in experiment [2] and in experiment [3] was “binds” in each case.

B3: hu anti-<huCDH19> 4B10 (1-471)(R17G) VH::huIgG1z / 4B10 (1-236)(H45Q,A90T) VL::huKLC (Ab ID 14054) (antibody, V domains shown)
VH: QVQLVESGGGVVQPGGSLRLSCAASGFTFSSYDMHWVRQAPGKGLEWVAVISYDGTNEYYADSVKGRFTISRDTSKNTLYLQMNSLRAEDTAVYYCARERYFDWSFDYWGQGTLVSVSS
VL: EIVLTQSPGTLSLSPGERATLSCRASQSVSNTYLAWYQQRPGQAPRLLIYGASSRATGIPDRFSGSGSGTDFTLTISSLEPEDFAVYYCQQYSNSWTFGQGTKVEIKR
notes: Engineered variant of 4B10
Consider B3, for which the binding result in [1], in experiment [2] and in experiment [3] was “binds” each time.

B4: hu anti-<huCDH19> 26F12.1 VH::huIgG1z / 26F12.1 VL::huLLC-C2 (Ab ID 13881) (antibody, V domains shown)
VH: QVQLVQSGAEVKKPGASVKVSCKASRYTFTNYYMSWVRQAPGQGLEWMGIINPSGGDSTYAQKFQGRLTMTGDTSTSTVYMELSSLRSEDTAVYYCARGGIQLWLHFDYWGQGTLVTVSS
VL: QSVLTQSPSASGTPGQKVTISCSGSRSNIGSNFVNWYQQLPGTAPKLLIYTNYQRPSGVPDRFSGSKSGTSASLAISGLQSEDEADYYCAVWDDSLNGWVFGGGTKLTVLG
notes: also called 27B3
For the molecule B4, the binding result in [4] is listed as “no binding (tested: 5 ug/ml)”; in experiment [5] it was “binds”; in experiment [6], “no binding (tested: 5 ug/ml)”; in [7], “no binding (tested: 5 ug/ml)”; in experiment [8], “no binding (tested: 5 ug/ml)”.
